Source: patent US20100120665A1

Legend:
Test in all cases: cell-based or functional assay
[1] = biological target: human complement factor D (human) (UniProt P00746)
[2] = biological target: mouse factor B (endogenous, in diluted whole mouse serum) (mouse) (UniProt P04186)
[3] = biological target: purified human factor B protein (Quidel, Catalog# A408) (human) (UniProt P00751)
Chain of UniProt P00751 (P00751 26-764): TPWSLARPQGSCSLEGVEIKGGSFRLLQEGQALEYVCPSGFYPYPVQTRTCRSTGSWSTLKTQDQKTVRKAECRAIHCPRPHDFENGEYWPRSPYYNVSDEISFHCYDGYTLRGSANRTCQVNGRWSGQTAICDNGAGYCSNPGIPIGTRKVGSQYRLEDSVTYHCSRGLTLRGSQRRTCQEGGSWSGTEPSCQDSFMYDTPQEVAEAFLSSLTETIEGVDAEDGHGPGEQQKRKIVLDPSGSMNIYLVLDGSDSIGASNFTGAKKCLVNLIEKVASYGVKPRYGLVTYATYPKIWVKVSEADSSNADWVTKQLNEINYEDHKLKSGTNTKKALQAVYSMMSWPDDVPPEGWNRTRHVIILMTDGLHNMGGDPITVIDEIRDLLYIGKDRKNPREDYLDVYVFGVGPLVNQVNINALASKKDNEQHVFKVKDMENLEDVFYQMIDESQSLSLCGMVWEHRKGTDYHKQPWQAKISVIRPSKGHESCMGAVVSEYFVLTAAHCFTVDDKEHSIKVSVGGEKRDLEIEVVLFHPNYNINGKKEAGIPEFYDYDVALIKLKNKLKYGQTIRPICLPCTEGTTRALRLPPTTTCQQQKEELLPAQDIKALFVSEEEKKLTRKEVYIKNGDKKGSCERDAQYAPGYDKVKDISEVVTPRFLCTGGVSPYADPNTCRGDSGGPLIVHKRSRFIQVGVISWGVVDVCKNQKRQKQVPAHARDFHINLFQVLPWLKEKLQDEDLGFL

Chain of UniProt P00746 (P00746 26-253 limits assumed): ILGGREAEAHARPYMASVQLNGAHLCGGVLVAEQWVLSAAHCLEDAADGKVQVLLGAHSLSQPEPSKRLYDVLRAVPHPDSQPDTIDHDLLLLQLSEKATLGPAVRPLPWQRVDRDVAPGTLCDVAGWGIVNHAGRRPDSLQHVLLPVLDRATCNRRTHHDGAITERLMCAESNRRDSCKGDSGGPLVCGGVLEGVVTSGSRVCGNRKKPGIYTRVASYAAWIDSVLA
Chain of UniProt P04186 (P04186 23-761): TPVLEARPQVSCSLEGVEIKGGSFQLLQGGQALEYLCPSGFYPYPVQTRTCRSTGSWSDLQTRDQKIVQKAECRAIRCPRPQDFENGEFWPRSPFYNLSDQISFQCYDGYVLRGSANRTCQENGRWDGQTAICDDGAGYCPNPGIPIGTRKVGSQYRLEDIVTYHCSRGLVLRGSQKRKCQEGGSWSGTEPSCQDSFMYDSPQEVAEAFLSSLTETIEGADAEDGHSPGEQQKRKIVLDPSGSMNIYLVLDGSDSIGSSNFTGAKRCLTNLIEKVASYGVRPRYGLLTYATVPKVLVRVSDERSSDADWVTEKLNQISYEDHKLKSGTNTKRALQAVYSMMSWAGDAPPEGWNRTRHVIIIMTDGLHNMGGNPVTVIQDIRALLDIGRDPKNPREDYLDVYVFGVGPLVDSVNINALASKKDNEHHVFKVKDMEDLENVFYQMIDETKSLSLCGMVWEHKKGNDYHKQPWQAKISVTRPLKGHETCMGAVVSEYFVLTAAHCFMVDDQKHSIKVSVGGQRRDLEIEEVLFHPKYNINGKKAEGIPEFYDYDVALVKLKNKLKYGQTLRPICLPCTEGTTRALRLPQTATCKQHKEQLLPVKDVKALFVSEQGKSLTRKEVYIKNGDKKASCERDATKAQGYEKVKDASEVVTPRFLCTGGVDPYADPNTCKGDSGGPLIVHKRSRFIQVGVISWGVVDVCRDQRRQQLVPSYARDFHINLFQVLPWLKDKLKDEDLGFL

isotype matched mouse control IgG (eBioscience, Catalog# 14-4732) (antibody)
hemolysis OD 405 nm; Control IgG 5 ng + Purified hfB protein 0.5 ug [1]: 0.428 OD 405 nm
hemolysis OD 405 nm; Control IgG 10 ng + Purified hfB protein 0.5 ug [1]: 0.361 OD 405 nm
hemolysis OD 405 nm; Control IgG 20 ng + Purified hfB protein 0.5 ug [1]: 0.441 OD 405 nm
hemolysis OD 405 nm; Control IgG 30 ng + Purified hfB protein 0.5 ug [1]: 0.392 OD 405 nm
hemolysis OD 405 nm; Control IgG 40 ng + Purified hfB protein 0.5 ug [1]: 0.426 OD 405 nm
hemolysis OD 405 nm; Control IgG 50 ng + Purified hfB protein 0.5 ug [1]: 0.43 OD 405 nm
hemolysis OD 405 nm; Control IgG 60 ng + Purified hfB protein 0.5 ug [1]: 0.416 OD 405 nm
hemolysis OD 405 nm; Control IgG 70 ng + Purified hfB protein 0.5 ug [1]: 0.395 OD 405 nm
hemolysis OD 405 nm; Control IgG 80 ng + Purified hfB protein 0.5 ug [1]: 0.387 OD 405 nm
hemolysis OD 405 nm; Control IgG 90 ng + Purified hfB protein 0.5 ug [1]: 0.347 OD 405 nm
hemolysis OD 405 nm; Control IgG 100 ng + Purified hfB protein 0.5 ug [1]: 0.397 OD 405 nm
hemolysis OD 405 nm; Control IgG 150 ng + Purified hfB protein 0.5 ug [1]: 0.426 OD 405 nm
hemolysis OD 405 nm; Control IgG 200 ng + Purified hfB protein 0.5 ug [1]: 0.347 OD 405 nm
hemolysis OD 405 nm; Control IgG 400 ng + Purified hfB protein 0.5 ug [1]: 0.506 OD 405 nm
hemolysis OD 405 nm; Control IgG 800 ng + Purified hfB protein 0.5 ug [1]: 0.538 OD 405 nm
hemolysis OD 405 nm; Control IgG 1600 ng + Purified hfB protein 0.5 ug [1]: 0.618 OD 405 nm
hemolysis OD 405 nm; Control IgG 2400 ng + Purified hfB protein 0.5 ug [1]: 0.588 OD 405 nm

monoclonal anti-human factor D antibody (Affinity Bioreagents, Catalog# GAU008-01-02)
hemolysis OD 405 nm; Anti-hfD mAb 5 ng + Purified hfB protein 0.5 ug [1]: 0.373 OD 405 nm
hemolysis OD 405 nm; Anti-hfD mAb 10 ng + Purified hfB protein 0.5 ug [1]: 0.432 OD 405 nm
hemolysis OD 405 nm; Anti-hfD mAb 20 ng + Purified hfB protein 0.5 ug [1]: 0.369 OD 405 nm
hemolysis OD 405 nm; Anti-hfD mAb 30 ng + Purified hfB protein 0.5 ug [1]: 0.235 OD 405 nm
hemolysis OD 405 nm; Anti-hfD mAb 40 ng + Purified hfB protein 0.5 ug [1]: 0.227 OD 405 nm
hemolysis OD 405 nm; Anti-hfD mAb 50 ng + Purified hfB protein 0.5 ug [1]: 0.165 OD 405 nm
hemolysis OD 405 nm; Anti-hfD mAb 60 ng + Purified hfB protein 0.5 ug [1]: 0.126 OD 405 nm
hemolysis OD 405 nm; Anti-hfD mAb 70 ng + Purified hfB protein 0.5 ug [1]: 0.103 OD 405 nm
hemolysis OD 405 nm; Anti-hfD mAb 80 ng + Purified hfB protein 0.5 ug [1]: 0.078 OD 405 nm
hemolysis OD 405 nm; Anti-hfD mAb 90 ng + Purified hfB protein 0.5 ug [1]: 0.058 OD 405 nm
hemolysis OD 405 nm; Anti-hfD mAb 100 ng + Purified hfB protein 0.5 ug [1]: 0.061 OD 405 nm
hemolysis OD 405 nm; Anti-hfD mAb 150 ng + Purified hfB protein 0.5 ug [1]: 0.035 OD 405 nm
hemolysis OD 405 nm; Anti-hfD mAb 200 ng + Purified hfB protein 0.5 ug [1]: 0.029 OD 405 nm
hemolysis OD 405 nm; Anti-hfD mAb 400 ng + Purified hfB protein 0.5 ug [1]: 0.022 OD 405 nm
hemolysis OD 405 nm; Anti-hfD mAb 800 ng + Purified hfB protein 0.5 ug [1]: 0.015 OD 405 nm
hemolysis OD 405 nm; Anti-hfD mAb 1600 ng + Purified hfB protein 0.5 ug [1]: 0.014 OD 405 nm
hemolysis OD 405 nm; Anti-hfD mAb 2400 ng + Purified hfB protein 0.5 ug [1]: 0.049 OD 405 nm

mouse monoclonal antibody against human factor B (Quidel, Catalog# A227)
hemolysis OD 405 nm; Anti hfB mAb 0.4 ug + Mouse serum 50 ul (1:6 Diluted) [2]: 0.074 OD 405 nm
hemolysis OD 405 nm; Anti hfB mAb 0.4 ug + Purified hfB Protein 0.5 ug [3]: 0.051 OD 405 nm
hemolysis OD 405 nm; Anti hfB mAb 0.8 ug + Purified hfB Protein 0.5 ug [3]: 0 OD 405 nm
